Here are results for 4 compounds from patent US20230270636A1, “GOLD AND PALMITOYL PENTAPEPTIDE-4 NANOPARTICLES” (INFINITEC ACTIVOS, S.L., priority 2018, published 2023).

Series [1] can be described thus: Nanoparticle size by dynamic light scattering (DLS). The series is classed as physicochemical. To be noted: 1 mg/mL in water, 25° C. Here is the method:
The size of the nanoparticles can be determined by means of conventional methods in the art, particularly by means of dynamic light scattering (DLS). First the samples are prepared to determine particle size. To that end, 1 mg is weighed if it is powder and it is suspended in 1 mL of milli-Q H2O. In the case of liquid samples, a 100 μL aliquot of the sample to which 900 μL of milli-Q H2O are added is collected with an automatic pipette. Then the particle size measurement is taken using quartz cuvettes and Zetasizer Nano ZS series equipment (Malvern Instruments) of the Instituto de Quimica Avanzada de Cataluña (Advanced Chemistry Institute of Catalonia), CSIC.
The size of the nanoparticles (GNP, GNP-P1, and GNP-P2) was determined by dynamic light scattering (DLS) for which quartz cuvettes and Zetasizer Nano ZS series equipment (Malvern Instruments, Instituto de Quimica Avanzada de Cataluña) were used. The preparation of the samples consists of 1 mg if it is powder and it is suspended in 1 mL of milli-Q H2O. In the case of liquid samples, a 100 μL aliquot of the sample to which 900 μL of milli-Q H2O are added is collected with an automatic pipette such that there is always a concentration of 1 mg/mL of sample. Then the particle size measurement is taken at a temperature of 25° C.

Series [2] is described as follows: Zeta potential of nanoparticles (Zetasizer Nano ZS). The class given is physicochemical. To be noted: 1 mg/mL in water, 25° C. How it is done: The preparation of the samples for determining the Z potential consists of weighing 1 mg if it is powder and it is suspended in 1 mL of milli-Q H2O. Whereas in the case of liquid samples, a 100 μL aliquot of the sample to which 900 μL of milli-Q H2O are added is collected with an automatic pipette. Then the Z potential measurement is taken using DTS1070 plastic cuvettes and Zetasizer Nano ZS series equipment (Malvern Instruments) of the Instituto de Quimica Avanzada de Cataluña (Advanced Chemistry Institute of Catalonia), CSIC.
The Z potential of the nanoparticles synthesized was determined using DTS1070 plastic cuvettes and Zetasizer Nano ZS series equipment (Malvern Instruments, of the Instituto de Quimica Avanzada de Cataluña, CSIC). The preparation of the samples consists of 1 mg if it is powder and it is suspended in 1 mL of milli-Q H2O. In the case of liquid samples, a 100 μL aliquot of the sample to which 900 μL of milli-Q H2O are added is collected with an automatic pipette such that there is always a concentration of 1 mg/mL of sample. Then the Z potential measurement is taken at a temperature of 25° C.

Series [3] in a line: Concentration of peptide incorporated in nanoparticles by HPLC. The series is classed as physicochemical. The conditions noted are these: UV 220 nm. Here is the method:
The concentration of the peptide (P1 or P2) incorporated in the nanoparticles (GNP-P1 and/or GNP-P2) was determined by HPLC, using a Waters 996 photodiode array detector instrument equipped with a Waters 2695 separation module and Millenium software. An Xbridge BEH130 C18 4.6×100 mm 3.5 μm reverse phase HPLC column by Waters was used. UV detection was performed at 220 nm, and a mobile phase B gradient of 5 to 100% was performed for 8 minutes at a flow rate of 1.0 ml/min. Under these conditions, the retention time being 6.4 min for both peptides P1 and P2. Mobile phase A: 0.045% of TFA/H2O, mobile phase B: 0.036% of TFA/ACN.

The nature of series [4]: Cutaneous penetration using Franz diffusion cells. The series is classed as in vitro ADME. The conditions noted are these: pig skin, 20 h incubation; for Change in cutaneous penetration upon conjugating the peptide with gold nanoparticles: FIG. 1; for Cutaneous penetration (skin layers reached): 32° C., receptor solution analysed. Here is the method:
Cutaneous penetration was determined using Franz cells. The pig skin samples used in the experiments were cut into circles 3 cm in diameter. The pig skin was mounted on the receptor compartment of a Franz diffusion cell system with the stratum corneum facing up towards the donor compartment. 18 ml of phosphate-buffered saline (PBS) were used as receptor solution. An aliquot of the test samples (nanoparticles of Example 1 (GNP-P1), nanoparticles of Example 2 (GNP-P2), nanoparticles of Example 3 (GNP), formulation of peptide P1 of Example 4, formulation of peptide P2 of Example 5, mixture of nanoparticles and peptide P1 (GNP+P1) of Example 6 was applied on the pig skin. The Franz diffusion cells were mounted on an H+P Labortechnik Varimag Telesystem (Munich, Germany) and placed in a thermostatic bath (Haake).
Untreated skin control was also included. The Franz diffusion cells were kept at 32° C., and after 20 h of incubation, the receptor solution was analyzed by means of UV-visible absorption spectroscopy using a Shimadzu spectrophotometer UV-1800 (Parc Cientific of Barcelona) and quartz cuvettes (Hellma Analytics) to quantify the amount of gold nanoparticles present (GNP, GNP-P1, and GNP-P2). The amount of free peptide (P1, P2) was determined by means of HPLC, using a Waters 996 photodiode array detector instrument equipped with a Waters 2695 separation module and Millenium software. An Xbridge BEH130 C18 4.6×100 mm 3.5 μm reverse phase HPLC column by Waters was used. In both cases, UV detection was performed at 220 nm. Peptide P1 was analyzed with a mobile phase B gradient of 5 to 100% for 8 minutes at a flow rate of 1.0 ml/min, the retention time being 6.5 minutes. Peptide P2 was analyzed with a mobile phase B gradient of 0 to 20% for 8 minutes at a flow rate of 1.0 ml/min, the retention time being 1.5 minutes. The eluents used in both cases were: Mobile phase A: 0.045% of TFA/H2O, mobile phase B: 0.036% of TFA/ACN.

Where a SMILES comes first, the peptide text is derived from it. Where no end group is shown, it is not given here. The star is where a group is joined. Palmitoyl = CCCCCCCCCCCCCCCC(=O)*

Consider “GNP − P2: gold nanoparticles conjugated with the peptide of formula (II) (P2; Palm-SEQ ID NO: 2) (Palmitoyl-CKTTKSCTTKS; cysteine pairing not given here; also: conjugated to gold nanoparticles)”, for which, in series [1], the Nanoparticle diameter was 150-200 nm. The “Nanoparticle Zeta potential” value in series [2] is on record as −59 mV. Further, in series [3], the “Maximum concentration of peptide in nanoparticles” value is reported as 0.3 mg/mL.
With “Palm-L-Cys-L-Lys-L-Thr-L-Thr-L-Lys-L-Ser-L-Cys-L-Thr-L-Thr-L-Lys-L-Ser-OH [Example P2]”, the “Change in cutaneous penetration upon conjugating the peptide with gold nanoparticles” value in series [4] is “increase in penetration is not observed”.
As for “GNP − P1: gold nanoparticles conjugated with the peptide of formula (I) wherein R is a palmitoyl moiety (Palm-SEQ ID NO: 1) (Palmitoyl-KTTKS; also: conjugated to gold nanoparticles)”, in series [1], the Nanoparticle diameter is reported as 150-200 nm. For the same compound, the “Nanoparticle Zeta potential” value in series [2] is −35 mV. For the same compound, the “Maximum concentration of peptide in nanoparticles” value in series [3] is 0.3 mg/mL. Besides, in series [4], the “Cutaneous penetration (skin layers reached)” value was “penetration reached more internal layers such as the epidermis and dermis”; the “Change in cutaneous penetration upon conjugating the peptide with gold nanoparticles” value was “considerable increase in penetration”.
On to `CCCCCCCCCCCCCCCC(=O)N[C@@H](CCCCN)C(=O)N[C@H](C(=O)N[C@H](C(=O)N[C@@H](CCCCN)C(=O)N[C@@H](CO)C(=O)O)[C@@H](C)O)[C@@H](C)O` [Example P1, Palm-L-Lys-L-Thr-L-Thr-L-Lys-L-Ser-OH] (Palmitoyl-KTTKS-OH), for which the “Cutaneous penetration (skin layers reached)” value in series [4] is reported as “only penetrated the outermost layers external of the skin”.
